# Measurements taken from article PMC3799435, “Dissecting the interactions of SERRATE with RNA and DICER-LIKE 1 in Arabidopsis microRNA precursor processing” (Nucleic Acids Research, 2013).
# B1: SE1–701, C-terminally truncated hexahistidine-tagged SERRATE (domain or fragment, Arabidopsis thaliana, UniProt Q9ZVD0 1-701, looked up)
# chain: MADVNLPPSDSVDNRLPEKSTSSSPPPPPPSSSLPQQEQEQDQQQLPLRRERDSRERRDERDIERPPPNRRERDRSPLPPPRRDYKRRPSLSPPPPYRDRRHSPPQRRSPPQKRYRRDDNGYDGRRGSPRGGYGPPDRRFGYDHGGGYDREMGGRPGYGDERPHGRFMGRYQDWEGGRGGYGDASNSGNPQRDGLMSYKQFIQELEDDILPSEAERRYQEYKSEYITTQKRAFFNTHKEEDWLKNKYHPTNLLSVIERRNDLAQKVAKDFLLDLQSGTLDLGPAVTALNKSGRTSEPNSEDEAAGVGKRKRHGMGGAKENELLSAAPKAPSFTSDPKRILTDVEQTQALVRKLDSEKKIEENVLQGSETEKSGREKLHSGSTGPVVIIRGLTSVKGLEGVELLDTLVTYLWRVHGLDYYGKVETNEAKGLRHVRAEGKVSDAKGDENESKFDSHWQERLKGQDPLEVMAAKEKIDAAATEALDPHVRKIRDEKYGWKYGCGAKGCTKLFHAAEFVYKHLKLKHTELVTELTTKVREELYFQNYMNDPNAPGGQPATQQSGPRDRPIRRKPSMENRLRDDRGGRRERDGRANGNDRNDRSEDQQRGDNDGGNPGEVGYDAFGGQGGVHVPPFLSDINPPPMLMPVPGAGPLGPFVPAPPEVAMQMFRDPSGPNPPFEGSGRGGPAPFLLSPAFRQDPRRLRS
# notes: No cleavage step of the tag is described in the purification; also called C-terminal domain deletion; source: Sf9 insect cells (baculovirus), purified (TALON, Superdex 200)
# B2: SERRATE (SE), untagged recombinant (natural protein, Arabidopsis thaliana, UniProt Q9ZVD0 1-720, looked up)
# chain: MADVNLPPSDSVDNRLPEKSTSSSPPPPPPSSSLPQQEQEQDQQQLPLRRERDSRERRDERDIERPPPNRRERDRSPLPPPRRDYKRRPSLSPPPPYRDRRHSPPQRRSPPQKRYRRDDNGYDGRRGSPRGGYGPPDRRFGYDHGGGYDREMGGRPGYGDERPHGRFMGRYQDWEGGRGGYGDASNSGNPQRDGLMSYKQFIQELEDDILPSEAERRYQEYKSEYITTQKRAFFNTHKEEDWLKNKYHPTNLLSVIERRNDLAQKVAKDFLLDLQSGTLDLGPAVTALNKSGRTSEPNSEDEAAGVGKRKRHGMGGAKENELLSAAPKAPSFTSDPKRILTDVEQTQALVRKLDSEKKIEENVLQGSETEKSGREKLHSGSTGPVVIIRGLTSVKGLEGVELLDTLVTYLWRVHGLDYYGKVETNEAKGLRHVRAEGKVSDAKGDENESKFDSHWQERLKGQDPLEVMAAKEKIDAAATEALDPHVRKIRDEKYGWKYGCGAKGCTKLFHAAEFVYKHLKLKHTELVTELTTKVREELYFQNYMNDPNAPGGQPATQQSGPRDRPIRRKPSMENRLRDDRGGRRERDGRANGNDRNDRSEDQQRGDNDGGNPGEVGYDAFGGQGGVHVPPFLSDINPPPMLMPVPGAGPLGPFVPAPPEVAMQMFRDPSGPNPPFEGSGRGGPAPFLLSPAFRQDPRRLRSYQDLDAPEEEVTVIDYRSL
# notes: SERRATE (SE) of Arabidopsis thaliana, 81 kDa, 720 amino acids; cDNA amplified with primers from the start codon to the stop codon; also called native SE; untagged SE; source: Sf9 insect cells (baculovirus), purified (Ni-NTA, StrepTrap, SUMOstar protease, Ni-NTA flow-through, Superdex 200); not shown: His6, N-terminal, cleaved; Strep-tag II, N-terminal, cleaved; SUMOstar, N-terminal, cleaved
# B3: N-terminally hexahistidine-tagged wild-type SERRATE (SE) (natural protein, Arabidopsis thaliana, UniProt Q9ZVD0 1-720, looked up)
# chain: MADVNLPPSDSVDNRLPEKSTSSSPPPPPPSSSLPQQEQEQDQQQLPLRRERDSRERRDERDIERPPPNRRERDRSPLPPPRRDYKRRPSLSPPPPYRDRRHSPPQRRSPPQKRYRRDDNGYDGRRGSPRGGYGPPDRRFGYDHGGGYDREMGGRPGYGDERPHGRFMGRYQDWEGGRGGYGDASNSGNPQRDGLMSYKQFIQELEDDILPSEAERRYQEYKSEYITTQKRAFFNTHKEEDWLKNKYHPTNLLSVIERRNDLAQKVAKDFLLDLQSGTLDLGPAVTALNKSGRTSEPNSEDEAAGVGKRKRHGMGGAKENELLSAAPKAPSFTSDPKRILTDVEQTQALVRKLDSEKKIEENVLQGSETEKSGREKLHSGSTGPVVIIRGLTSVKGLEGVELLDTLVTYLWRVHGLDYYGKVETNEAKGLRHVRAEGKVSDAKGDENESKFDSHWQERLKGQDPLEVMAAKEKIDAAATEALDPHVRKIRDEKYGWKYGCGAKGCTKLFHAAEFVYKHLKLKHTELVTELTTKVREELYFQNYMNDPNAPGGQPATQQSGPRDRPIRRKPSMENRLRDDRGGRRERDGRANGNDRNDRSEDQQRGDNDGGNPGEVGYDAFGGQGGVHVPPFLSDINPPPMLMPVPGAGPLGPFVPAPPEVAMQMFRDPSGPNPPFEGSGRGGPAPFLLSPAFRQDPRRLRSYQDLDAPEEEVTVIDYRSL
# notes: SERRATE (SE) of Arabidopsis thaliana, 720 amino acids; tagged protein 86 kDa; primers from the start codon to the stop codon; myc tag and Strep tag II were inserted in the NotI site of the modified pENTR-D/TOPO vector, then moved to pDEST10; also called His-tagged SE; hexahistidine-tagged SE; source: Sf9 insect cells (baculovirus), purified (TALON, Superdex 200); not shown: His6, N-terminal, kept
# What was measured:
# Conditions in all cases: both partners purified
# [1] = target: T1, DICER-LIKE 1 (DCL1), untagged recombinant (Arabidopsis thaliana, UniProt Q9SP32 1-1909); assay: SPR; Biacore T100; about 1750 RU of DCL1 immobilised via amine groups on a CM5 chip, no RNA; SE and its mutants injected for 70 s at 20 nM; 20 mM Tris-HCl (pH 7.0), 50 mM NaCl, 2 mM β-ME, 0.005% surfactant P20
# T1 construct: DICER-LIKE 1 (DCL1) of Arabidopsis thaliana, 214 kDa; cDNA amplified with primers from the start codon to the stop codon; one silent mutation introduced; no extra residues at the N-terminus after SUMOstar protease; also called native DCL1; source: Sf9 insect cells (baculovirus), purified (Ni-NTA, StrepTrap, SUMOstar protease, Ni-NTA flow-through, Superdex 200); not shown: His6, N-terminal, …
# [2] = target: T1, DICER-LIKE 1 (DCL1), untagged …; assay: SPR; Biacore T100; 1750 RU of DCL1 immobilised via amine groups on a CM5 chip; SE injected for 70 s at 20 nM; 20 mM Tris-HCl (pH 7.0), 2 mM β-ME, 0.005% surfactant P20, 50 mM or 150 mM NaCl
# [3] = target: T1, DICER-LIKE 1 (DCL1), untagged …; assay: SPR; Biacore T100; about 1200 RU of DCL1 (injected at 16 nM) bound beforehand to 60 RU of biotin-labelled forked RNA on an SA chip; SE and its mutants then injected for 70 s at 20 nM; 20 mM Tris-HCl (pH 7.0), 50 mM NaCl, 2 mM β-ME, 0.005% surfactant P20; RU of mutants normalised to the RU of DCL1 bound
# T1 sequence (Q9SP32 whole entry): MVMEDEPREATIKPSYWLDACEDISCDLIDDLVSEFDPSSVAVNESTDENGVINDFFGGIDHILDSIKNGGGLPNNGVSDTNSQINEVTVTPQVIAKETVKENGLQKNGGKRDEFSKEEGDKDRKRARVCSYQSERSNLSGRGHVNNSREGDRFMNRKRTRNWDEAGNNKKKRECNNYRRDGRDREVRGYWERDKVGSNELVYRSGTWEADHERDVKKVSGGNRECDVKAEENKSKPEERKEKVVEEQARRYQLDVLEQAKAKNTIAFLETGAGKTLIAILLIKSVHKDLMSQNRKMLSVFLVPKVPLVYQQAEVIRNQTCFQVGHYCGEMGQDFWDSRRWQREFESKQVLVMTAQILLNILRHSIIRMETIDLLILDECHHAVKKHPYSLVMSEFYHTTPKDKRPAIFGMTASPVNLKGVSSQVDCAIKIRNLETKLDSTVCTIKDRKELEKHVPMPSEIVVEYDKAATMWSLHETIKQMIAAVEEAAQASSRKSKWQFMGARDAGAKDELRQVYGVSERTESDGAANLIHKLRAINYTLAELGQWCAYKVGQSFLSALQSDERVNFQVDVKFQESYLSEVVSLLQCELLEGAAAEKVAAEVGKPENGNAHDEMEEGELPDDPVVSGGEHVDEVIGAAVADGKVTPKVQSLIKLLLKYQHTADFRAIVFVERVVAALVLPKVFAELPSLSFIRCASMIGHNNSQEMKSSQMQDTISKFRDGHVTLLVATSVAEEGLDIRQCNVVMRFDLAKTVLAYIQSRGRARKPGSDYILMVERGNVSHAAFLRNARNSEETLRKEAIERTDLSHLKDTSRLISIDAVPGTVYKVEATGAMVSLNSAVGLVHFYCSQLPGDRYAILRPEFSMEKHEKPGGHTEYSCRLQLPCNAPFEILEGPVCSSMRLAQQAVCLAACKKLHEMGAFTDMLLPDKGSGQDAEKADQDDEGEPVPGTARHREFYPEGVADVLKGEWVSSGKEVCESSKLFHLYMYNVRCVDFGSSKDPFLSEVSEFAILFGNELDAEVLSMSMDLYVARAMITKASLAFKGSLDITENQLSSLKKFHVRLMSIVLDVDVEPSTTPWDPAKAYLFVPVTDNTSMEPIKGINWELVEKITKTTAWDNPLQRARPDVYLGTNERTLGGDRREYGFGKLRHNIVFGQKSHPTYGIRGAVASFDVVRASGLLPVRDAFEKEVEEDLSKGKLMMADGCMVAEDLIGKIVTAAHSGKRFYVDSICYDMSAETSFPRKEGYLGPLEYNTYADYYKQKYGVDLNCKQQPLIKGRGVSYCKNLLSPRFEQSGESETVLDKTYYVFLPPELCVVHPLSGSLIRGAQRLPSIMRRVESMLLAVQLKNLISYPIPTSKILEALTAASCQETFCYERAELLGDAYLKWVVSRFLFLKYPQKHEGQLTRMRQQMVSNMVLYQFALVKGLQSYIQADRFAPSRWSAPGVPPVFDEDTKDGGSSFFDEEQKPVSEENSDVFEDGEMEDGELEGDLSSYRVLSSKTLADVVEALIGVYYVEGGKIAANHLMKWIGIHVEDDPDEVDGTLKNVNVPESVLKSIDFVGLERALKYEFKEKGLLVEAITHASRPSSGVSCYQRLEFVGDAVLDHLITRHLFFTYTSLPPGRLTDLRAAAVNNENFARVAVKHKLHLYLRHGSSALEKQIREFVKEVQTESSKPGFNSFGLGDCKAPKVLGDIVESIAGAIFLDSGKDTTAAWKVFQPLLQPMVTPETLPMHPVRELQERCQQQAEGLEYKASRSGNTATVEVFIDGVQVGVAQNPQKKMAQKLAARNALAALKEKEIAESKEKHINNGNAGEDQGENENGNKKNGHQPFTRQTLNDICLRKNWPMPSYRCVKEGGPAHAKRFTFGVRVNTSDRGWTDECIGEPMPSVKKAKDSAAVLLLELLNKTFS
binder,measurement,setting,value
B1,binding result,[1],binds
B2,fold reduction in RUmax from 50 to 150 mM NaCl,[2],5 fold
B3,stoichiometry N,[1],0.7 SE:DCL1 molar ratio
same,stoichiometry N,[3],2.4 SE:DCL1 molar ratio
